Measurements: article PMC7006622

Target: thrombin (UniProt P00734;P00734 328-363;364-622)
Assay: single-molecule TIRF, transient Cy3 probe binding to switch; LOD 20 pM (not a Kd); no specific signal without thrombin; 1x PBS with oxygen scavenger system, 20 nM Cy3 probe, 25 +/- 1 C; switch immobilised on PEG/biotin-PEG streptavidin glass

B1: thrombin-responsive three-way-junction molecular switch (B4 + G13 + CP1, probed by FP1) (structured_DNA)
DNA 1: TGGGATGGTTGGTGTGGTTGGCCGTACTCTATGAGCCTCTG
DNA 2: TCAGTGGGGTTGGACGGGATGGTGCCTGACCGTGT
DNA 3: TTTTTCAGAGGCTCATAGAGTACGG
DNA 4: AAACACGGATCCCATA
binding result: binds
